Among the data in the supplement of paper PMC10567573 are protein stability index values, retold here.

B1: P2RY14 (parent)
chain: KLLSVIVWMLMLLLAVPNIILTNQ
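Further: lentivirally expressed fusions sorted by FACS into six bins by GFP to DsRed ratio, PSI derived from sequencing read proportions per bin multiplied by bin number.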

Variants of B1 are the subject of the data set. Description: protein stability index of a GFP-peptide fusion (GPS, HEK-293T) (PSI 1-6); higher = more stable. The following applies: c terminus: a fixed tail appended.
In the case of KLLSVIVWMVMLLLAVPNIILTNQ [L10V], the protein stability index came to 2.99. The same measure for KLLSVIVWMPMLLLAVPNIILTNQ [L10P]: 2.86.

In the case of KLLSVIVWMDMLLLAVPNIILTNQ [L10D], the protein stability index was 2.5.

Take KLLSVIVWMEMLLLAVPNIILTNQ [L10E]: the protein stability index was found to be 4.43.

With KLLSVIVWMNMLLLAVPNIILTNQ [L10N], the protein stability index came out at 1.95. The figure for KLLSVIVWMCMLLLAVPNIILTNQ [L10C] is 1.39; for KLLSVIVWMIMLLLAVPNIILTNQ [L10I] it is 3.19. The figure for KLLSVIVWMHMLLLAVPNIILTNQ [L10H] is 3.63. As to KLLSVIVWMGMLLLAVPNIILTNQ [L10G], the protein stability index worked out at 2.08. The figure for KLLSVIVWMFMLLLAVPNIILTNQ [L10F] is 3.32; for KLLSVIVWMSMLLLAVPNIILTNQ [L10S] it is 4.89. The figure for KLLSVIVWMMMLLLAVPNIILTNQ [L10M] is 3.84. On to KLLSVIVWMTMLLLAVPNIILTNQ [L10T], for which the protein stability index amounted to 3.58. KLLSVIVWMQMLLLAVPNIILTNQ [L10Q]: the protein stability index is 3.16. The figure for KLLSVIVWMWMLLLAVPNIILTNQ [L10W] is 2.31. The same measure for KLLSVIVWMYMLLLAVPNIILTNQ [L10Y]: 3.48; for KLLSVIVWMLMLKLAVPNIILTNQ [L13K]: 1.78. The figure for KLLSVIVWMLMLFLAVPNIILTNQ [L13F] is 3.72. Turning to KLLSVIVWMLMLYLAVPNIILTNQ [L13Y], the protein stability index stood at 3.48. The figure for KLLSVIVWMLMLALAVPNIILTNQ [L13A] is 2.98; for KLLSVIVWMLMLPLAVPNIILTNQ [L13P] it is 3.47; for KLLSVIVWMLMLSLAVPNIILTNQ [L13S] it is 3.29. The same measure for KLLSVIVWMLMLHLAVPNIILTNQ [L13H]: 4.28. The same measure for KLLSVIVWMLMLGLAVPNIILTNQ [L13G]: 2.79; for KLLSVIVWMLMLNLAVPNIILTNQ [L13N]: 3.02. Consider KLLSVIVWMLMLTLAVPNIILTNQ [L13T], for which the protein stability index is 2.38. The same measure for KLLSVIVWMLMLILAVPNIILTNQ [L13I]: 1.81; for KLLSVIVWMLMLDLAVPNIILTNQ [L13D]: 3.11; for KLLSVIVWMLMLVLAVPNIILTNQ [L13V]: 1.84. The figure for KLLSVIVWMLMLRLAVPNIILTNQ [L13R] is 2.15; for KLLSVIVWGLMLLLAVPNIILTNQ [M9G] it is 2.87. The same measure for KLLSVIVWDLMLLLAVPNIILTNQ [M9D]: 4.27; for KLLSVIVWALMLLLAVPNIILTNQ [M9A]: 3.79; for KLLSVIVWWLMLLLAVPNIILTNQ [M9W]: 2.15. With KLLSVIVWLLMLLLAVPNIILTNQ [M9L], the protein stability index amounted to 3.19.

As to KLLSVIVWELMLLLAVPNIILTNQ [M9E], the protein stability index is 2.68.

In the case of KLLSVIVWSLMLLLAVPNIILTNQ [M9S], the protein stability index worked out at 3.82. The figure for KLLSVIVWQLMLLLAVPNIILTNQ [M9Q] is 3.1; for KLLSVIVWKLMLLLAVPNIILTNQ [M9K] it is 3.05.

KLLSVIVWNLMLLLAVPNIILTNQ [M9N]: the protein stability index amounted to 2.1. The figure for KLLSVIMWMLMLLLAVPNIILTNQ [V7M] is 3.08. The figure for KLLSVIRWMLMLLLAVPNIILTNQ [V7R] is 2.31; for KLLSVIWWMLMLLLAVPNIILTNQ [V7W] it is 4.44; for KLLSVISWMLMLLLAVPNIILTNQ [V7S] it is 2.28.

Consider KLLSVITWMLMLLLAVPNIILTNQ [V7T], for which the protein stability index is 3.76. The same measure for KLLSVIHWMLMLLLAVPNIILTNQ [V7H]: 2.11; for KLLSVIQWMLMLLLAVPNIILTNQ [V7Q]: 2.74; for KLLSVIYWMLMLLLAVPNIILTNQ [V7Y]: 3.99. The same measure for KLLSVIPWMLMLLLAVPNIILTNQ [V7P]: 2.8. The same measure for KLLSVIKWMLMLLLAVPNIILTNQ [V7K]: 4.05; for KLLSVIVIMLMLLLAVPNIILTNQ [W8I]: 3.03; for KLLSVIVQMLMLLLAVPNIILTNQ [W8Q]: 1.99. With KLLSVIVRMLMLLLAVPNIILTNQ [W8R], the protein stability index was 2.67. The same measure for KLLSVIVPMLMLLLAVPNIILTNQ [W8P]: 1.85; for KLLSVIVYMLMLLLAVPNIILTNQ [W8Y]: 2.21; for KLLSVIVTMLMLLLAVPNIILTNQ [W8T]: 3.35.

With KLLSVIVLMLMLLLAVPNIILTNQ [W8L], the protein stability index amounted to 1.76. The same measure for KLLSVIVNMLMLLLAVPNIILTNQ [W8N]: 2.41; for KLLSVIVFMLMLLLAVPNIILTNQ [W8F]: 2.3. As for KLLSVIVCMLMLLLAVPNIILTNQ [W8C], the protein stability index amounted to 1.95. The same measure for KLLSVIVVMLMLLLAVPNIILTNQ [W8V]: 2.86; for KLLSVIVHMLMLLLAVPNIILTNQ [W8H]: 2.85; for KLLSVIVMMLMLLLAVPNIILTNQ [W8M]: 3.83. As for KLLSVIVKMLMLLLAVPNIILTNQ [W8K], the protein stability index is 3.73. The figure for KLLSVIVEMLMLLLAVPNIILTNQ [W8E] is 3.97; for KLLSVIVGMLMLLLAVPNIILTNQ [W8G] it is 2.81. Turning to KLLSVIVWMLMLLCAVPNIILTNQ [L14C], the protein stability index was determined as 2.41. The figure for KLLSVIVWMLMLLAAVPNIILTNQ [L14A] is 2.24; for KLLSVIVWMLMMLLAVPNIILTNQ [L12M] it is 3.06; for KLLSVIVWMLMNLLAVPNIILTNQ [L12N] it is 2.32. The figure for KLLSVIVWMLMPLLAVPNIILTNQ [L12P] is 3.18; for KLLSVIVWMLMQLLAVPNIILTNQ [L12Q] it is 2.51; for KLLSVIVWMLMCLLAVPNIILTNQ [L12C] it is 3.75. As for KLLSVIVWMLMGLLAVPNIILTNQ [L12G], the protein stability index is 3.74. In the case of KLLSVIVWMLMFLLAVPNIILTNQ [L12F], the protein stability index turned out to be 2.59. For KLLSVIVWMLMALLAVPNIILTNQ [L12A], the protein stability index amounted to 2.7. The figure for KLLSVIVWMLMDLLAVPNIILTNQ [L12D] is 2.65; for KLLSVIVWMLMHLLAVPNIILTNQ [L12H] it is 2.22; for KLLSVIVWMLMRLLAVPNIILTNQ [L12R] it is 2.69.

Take KLLSVIVWMLELLLAVPNIILTNQ [M11E]: the protein stability index stood at 2.06. The figure for KLLSVIVWMLALLLAVPNIILTNQ [M11A] is 2.06. Turning to KLLSVIVWMLYLLLAVPNIILTNQ [M11Y], the protein stability index came to 2.38. The same measure for KLLSVIVWMLSLLLAVPNIILTNQ [M11S]: 2.01; for KLLSVIVWMLFLLLAVPNIILTNQ [M11F]: 3.31. The figure for KLLSVIVWMLRLLLAVPNIILTNQ [M11R] is 2.58; for KLLSVIVWMLPLLLAVPNIILTNQ [M11P] it is 3.16; for KLLSVIVWMLNLLLAVPNIILTNQ [M11N] it is 2.42.

As for KLLSVIVWMLKLLLAVPNIILTNQ [M11K], the protein stability index was found to be 2.5. The figure for KLLSVIVWMLILLLAVPNIILTNQ [M11I] is 3.17; for KLLSVIVWMLHLLLAVPNIILTNQ [M11H] it is 3. Take KLLSVIVWMLQLLLAVPNIILTNQ [M11Q]: the protein stability index came out at 1.1. KLLSVIVWMLWLLLAVPNIILTNQ [M11W]: the protein stability index amounted to 2.89. On to KLLSVIVWMLVLLLAVPNIILTNQ [M11V], for which the protein stability index is 3.42. KLLSVIVWMLDLLLAVPNIILTNQ [M11D]: the protein stability index was determined as 4.89.
